{
  "source": "paper PMC6136348",
  "about": "“In the quest for new targets for pathogen eradication: the adenylosuccinate synthetase from the bacterium Helicobacter pylori” (Journal of Enzyme Inhibition and Medicinal Chemistry, 2018)",
  "molecular_target": "the molecule itself",
  "assay": "SEC; Sephacryl S-200 HR column calibrated with marker proteins; 50 mM phosphate buffer pH 6.5, 150 mM NaCl, 2 mM EDTA, 1 mM DTT, +4 °C; sample loaded at ~15 mg/mL total protein (second step of the purification)",
  "data": [
    {"protein": "Helicobacter pylori adenylosuccinate synthetase (AdSS) (enzyme, Helicobacter pylori (strain ATCC 26695), UniProt P56137 1-411, looked up, Adenylosuccinate synthetase (AdSS, EC 6.3.4.4), product of the purA gene of Helicobacter pylori strain ATCC 26695; amplified from genomic DNA with primers for the 5' and the 3' end of the gene; theoretical monomer mass 45,742.72 Da; Cloned between NdeI and XhoI of pET21b; The printed reverse primer appears to carry a stop codon before the XhoI site, so the vector's C-terminal His tag is probably …) MADVVVGIQWGDEGKGKIVDRIAKDYDFVVRYQGGHNAGHTIVHKGVKHSLHLMPSGVLYPKCKNIISSAVVVSVKDLCEEISAFEDLENRLFVSDRAHVILPYHAKKDAFKEKSQNIGTTKKGIGPCYEDKMARSGIRMGDLLDDKILEEKLNAHFKAIEPFKKAYDLGENYEKDLMGYFKTYAPKICPFIKDTTSMLIEANQKGEKILLEGAQGTLLDIDLGTYPFVTSSNTTSASACVSTGLNPKAINEVIGITKAYSTRVGNGPFPSEDTTPMGDHLRTKGAEFGTTTKRPRRCGWLDLVALKYACALNGCTQLALMKLDVLDGIDAIKVCVAYERKGERLEIFPSDLKDCVPIYQTFKGWEKSVGVRKLDDLEPNVREYIRFIEKEVGVKIRLISTSPEREDTIFL", "values": [
      {"measurement": "stoichiometry N", "result": 2}
    ]}
  ]
}
